Values quoted from earlier work, collected in patent US20050181485A1, “Cellulose digesting enzyme gene and utilization of the gene” (priority 2002, published 2005).
Read-outs that look alike come from different tables or passages of the source.

Conditions: known cellobiose dehydrogenases

B1: Phanerochaete chrysosporium: known cellobiose dehydrogenase reported by Henriksson et al. (protein, UniProt Q01738 19-773, looked up)
Cellobiose dehydrogenase: QSASQFTDPTTGFQFTGITDPVHDVTYGFVFPPLATSGAQSTEFIGEVVAPIASKWIGIALGGAMNNDLLLVAWANGNQIVSSTRWATGYVQPTAYTGTATLTTLPETTINSTHWKWVFRCQGCTEWNNGGGIDVTSQGVLAWAFSNVAVDDPSDPQSTFSEHTDFGFFGIDYSTAHSANYQNYLNGDSGNPTTTSTKPTSTSSSVTTGPTVSATPYDYIIVGAGPGGIIAADRLSEAGKKVLLLERGGPSTKQTGGTYVAPWATSSGLTKFDIPGLFESLFTDSNPFWWCKDITVFAGCLVGGGTSVNGALYWYPNDGDFSSSVGWPSSWTNHAPYTSKLSSRLPSTDHPSTDGQRYLEQSFNVVSQLLKGQGYNQATINDNPNYKDHVFGYSAFDFLNGKRAGPVATYLQTALARPNFTFKTNVMVSNVVRNGSQILGVQTNDPTLGPNGFIPVTPKGRVILSAGAFGTSRILFQSGIGPTDMIQTVQSNPTAAAALPPQNQWINLPVGMNAQDNPSINLVFTHPSIDAYENWADVWSNPRPADAAQYLANQSGVFAGASPKLNFWRAYSGSDGFTRYAQGTVRPGAASVNSSLPYNASQIFTITVYLSTGIQSRGRIGIDAALRGTVLTPPWLVNPVDKTVLLQALHDVVSNIGSIPGLTMITPDVTQTLEEYVDAYDPATMNSNHWVSSTTIGSSPQSAVVDSNVKVFGTNNLFIVDAGIIPHLPTGNPQGTLMSAAEQAAAKILALAGGP
- Isoelectric point: 4.2
- Optimal pH: 5.0
- Optimal temperature: 50 °C
- Isoelectric point (listed as cellobiose dehydrogenase derived from Phanerochaete chrysosporium): about 4.2
